The values that follow come from patent publication US20110008258A1, “METHODS RELATING TO BREATHING DISORDERS” (SAMSARA MEDICIN AB, priority 2007, published 2011).

One may read the IC50 as the concentration at which inhibition is half-maximal.

The target in assay [1] is T1, mPGES-1 enzyme (Homo sapiens, UniProt O14684).
T1 sequence (O14684 1-152): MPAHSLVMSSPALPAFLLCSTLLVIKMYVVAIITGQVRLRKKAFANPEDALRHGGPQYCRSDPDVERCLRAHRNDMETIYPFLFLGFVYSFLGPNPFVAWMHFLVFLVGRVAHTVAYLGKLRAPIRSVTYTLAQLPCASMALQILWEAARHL
Particulars: reported in refs 75-77; read-out: IC50, inhibition of mPGES-1; cited from earlier work.

Assay [2] has as its system IL-1β-induced respiratory depression. Particulars: cited from earlier work.
The subject of assay [3] is EP3R^−/− mice. The experiment in a line: Whole-body flow plethysmography after i.p. IL-1β, EP3R−/− mice. The class given is in vivo. As for the experimental part: (§1) A Plexiglas chamber (35 ml) was connected to a highly sensitive direct airflow sensor (0-200 ml/min; TRN3100, Kent Scientific Corporation, Litchfield, Conn., USA). The flow signal was amplified by a four-channel amplifier (P/N 770 S/N 5; SENSElab, Somedic Sales, Hörby, Sweden), converted to digital signal, and recorded at 100 Hz by an online computer using DasyLab software (Datalog GmbH & Co. KG, Mönchengladbach, Germany). Respiratory frequency (fR, breaths/min), tidal volume (VT, μl/breath), and minute ventilation (VE, μl/min) were calculated. […] As described previously, the chamber was calibrated by repeatedly injecting standardized volumes of air (5-200 μl) with preset precision syringes (Hamilton Bonaduz AG, Switzerland) (6).
(§2) Each mouse received an intraperitoneal injection (0.01 ml/g) of IL-1β (10 μg/kg) or vehicle. At 70 min, the mouse was placed unrestrained into the plethysmograph chamber. Respiration was assessed during 4 min of normoxia (21% O2) followed by 1 min of hyperoxia (100% O2). After a 5 min recovery period in normoxia, the respiratory response to anoxia (100% N2) was examined. Finally, 100% O2 was administered for 8 min, and the ability to autoresuscitate was evaluated. Skin temperature was recorded at baseline, at 70 min, and after removal from the chamber. Rectal temperature was not measured as rectal probe placement may alter respiratory behavior. The anogenital distance was measured to approximate gender.
Periods of calm respiration without movement artefact were selected for analysis. Mean fR, VT, and VE values during normoxia and hyperoxia as well as the anoxic response (i.e., hyperpnea, primary apnea, gasping, secondary apnea, and autoresuscitation) were analyzed as described previously (6, the disclosure of which is expressly incorporated herein by reference). Survival was recorded for all animals. Apnea was defined as cessation of breathing for three respiratory cycles. Regularity of breathing was quantified using the coefficient of variation (C.V.) (i.e., SD divided by mean of breath-by-breath interval during 60 periods). […]

In assay [4] the test system is mPGES-1. The assay can be described thus: mPGES-1 activity in brain membrane fraction after IL-1β. It counts as in vivo, mice. The protocol: Newborn mouse brains (n=33) were homogenized in 0.1M KPi (potassium inorganic phosphate) buffer containing 0.25M sucrose, 1× complete protease inhibitor (Roche Diagnostics) and 1 mM reduced glutathione followed by sonication. Membrane fraction was isolated by subcellular fractionation. mPGES-1 activity was measured in the membrane fraction as described previously (52, the disclosure of which is expressly incorporated herein by reference).

For assay [5], the system named is mPGES-1^−/− mice. The experiment in a line: Whole-body flow plethysmography after i.p. IL-1β, mPGES-1−/− mice. It counts as in vivo. The protocol: as §1, §2
(§3) Periods of calm respiration without movement artefact were selected for analysis. Mean fR, VT, and VE values during normoxia and hyperoxia as well as the anoxic response (i.e., hyperpnea, primary apnea, gasping, secondary apnea, and autoresuscitation) were analyzed as described previously (6, the disclosure of which is expressly incorporated herein by reference). Survival was recorded for all animals. Apnea was defined as cessation of breathing for three respiratory cycles. Regularity of breathing was quantified using the coefficient of variation (C.V.) (i.e., SD divided by mean of breath-by-breath interval during 60 periods).
(§4) As there is a variable response to anoxia based upon age (53), we attempted to perform all recordings at age P9; however, in an effort to minimize confounding age-related effects, weight was used as a correlate of age and only animals with weights within 1 SD of the population mean weight were included in the anoxia and survival analyses (6).

Assay [6] has as its system mPGES-1^+/+ mice. The experiment in a line: Whole-body flow plethysmography after i.p. IL-1β, mPGES-1+/+ mice. The class given is in vivo. As for the experimental part: as §1, §2, §3, §4
The mark [7] stands for this setting: EP3R wildtype mice, 90 min after IL-1β.
Where [8] appears, read: 9 d-old mPGES-1−/− mice, IL-1β i.p., hyperoxia (100% O2).
The mark [9] stands for this setting: 9 d-old mPGES-1−/− mice, IL-1β i.p., normoxia.
Setting [10] is: mPGES-1−/− mice, anoxia at 80 min after IL-1β.
Where [11] appears, read: 9 d-old mPGES-1+/+ mice, IL-1β i.p., hyperoxia (100% O2).
Setting [12] is: 9 d-old mPGES-1+/+ mice, IL-1β i.p., normoxia.
Where [13] appears, read: mPGES-1+/+ mice, anoxia at 80 min after IL-1β.

Take `CCCCC/C=C\C\C=C/C=C/C=C/[C@@H](SC[C@H](NC(=O)CC[C@H](N)C(=O)O)C(=O)NCC(=O)O)[C@@H](O)CCCC(=O)O` [leukotriene C4]: the 50% inhibitory concentration (IC50) in assay [1] was 5 µM.

With `CSc1ccc(/C=C2/C(C)=C(CC(=O)O)c3cc(F)ccc32)cc1` [sulindac sulfide], the IC50 in assay [1] was 80 µM.

Turning to `COc1ccc2c(c1)c(CC(=O)O)c(C)n2C(=O)c1ccc(Cl)cc1` [indomethacin], in assay [2], the “effect on respiratory depression induced by IL-1β” value is on record as “attenuates the respiratory depression”. Moreover, in assay [2] (neonatal rats), the “effect on adverse effects of IL-1β on hypoxic gasping and anoxic survival” value is “attenuates the adverse effects”.

B1: IL-1β: Recombinant mouse interleukin-1β (Nordic Biosite AB), pro-inflammatory cytokine given i.p. to neonatal mice (protein, UniProt P10749 118-269, looked up)
Interleukin-1 beta: VPIRQLHYRLRDEQQKSLVLSDPYELKALHLNGQNINQQVIFSMSFVQGEPSNDKIPVALGLKGKNLYLSCVMKDGTPTLQLESVDPKQYPKKKMEKRFVFNKIEVKSKVEFESAEFPNWYISTSQAEHKPVFLGNNSGQDIIDFTMESVSS
As to B1, in assay [3] (EP3R−/− mice, IL-1β i.p.), the hypoxic ventilatory response entry is “unable to affect the hypoxic ventilatory response” and the “ventilation during normoxia or hyperoxia” value was “did not alter ventilation”. Moreover, the anoxic survival entry in assay [3] (mice lacking EP3R, 5 min anoxia at 80 min after IL-1β i.p.) is listed as “did not decrease survival”. Moreover, in assay [4] (setting [7]), the “mPGES-1 activity (PGE2), brainstem” value turned out to be 1111±49 pmol/min/mg protein and the “mPGES-1 activity (PGE2), cortex” value worked out at 710±44 pmol/min/mg protein. The “brainstem mPGES-1 activity compared to control mice” value in assay [4] (IL-1β-treated mice exposed to anoxia (100% N2, 5 min)) is “four-times higher activity”. The “cortex mPGES-1 activity” value in assay [4] (between 90 and 180 min after IL-1β) is reported as “remained unchanged”. Moreover, in assay [4] (mice with genetic deletion of mPGES-1 gene, IL-1β and anoxia), the mPGES-1 activity entry is “negligible activity”. The “brainstem mPGES-1 activity compared to saline-treated mice” value in assay [4] (wildtype mice, 90 min after IL-1β) was “approximately two-fold higher activity”. The “increase in brainstem mPGES-1 activity” value in assay [4] (wildtype mice, 180 min after IL-1β) was “four-fold increase”. In assay [5] (setting [8]), the “VE, hyperoxia” value was determined as 795 ± 67 µL/min/g; the “VT, hyperoxia” value was 3.9 ± 0.3 μl/br/g; the “fR, hyperoxia” value was found to be 206 ± 11 breaths/min. In addition, in assay [5] (setting [9]), the “VE, normoxia” value came to 660 ± 41 µL/min/g; the “VT, normoxia” value turned out to be 2.7 ± 0.1 μl/br/g; the “fR, normoxia” value was 245 ± 7 breaths/min. Further, the “Hyperpnea fR” value in assay [5] (mPGES-1−/− mice, anoxia (100% N2) at 80 min after IL-1β) was 338 ± 24 breaths/min. In assay [5] (setting [10]), the “Gasping Response Duration” value was 146 ± 23, the “Gasping Response Gasp #” value stood at 36 ± 3, the “Gasping Response Gasp fR” value stood at 18 ± 2 and the “Hyperpnea Duration” value was 57 ± 2. Besides, in assay [5] (mice lacking mPGES-1, 5 min anoxia at 80 min after IL-1β i.p.), the anoxic survival entry was “did not decrease survival”. Further, the “fR, normoxia” value in assay [6] (9 d-old mPGES-1+/+ mice, IL-1β 10 μg/kg i.p., normoxia, mean±SEM) came to 224 ± 5 breaths/min. For the same molecule, in assay [6] (setting [11]), the “VE, hyperoxia” value was determined as 628 ± 43 µL/min/g; the “VT, hyperoxia” value is listed as 3.9 ± 0.2 μl/br/g; the “fR, hyperoxia” value is given as 155 ± 7 breaths/min. For the same molecule, in assay [6] (setting [12]), the “VE, normoxia” value was 730 ± 38 µL/min/g and the “VT, normoxia” value came to 3.2 ± 0.2 μl/br/g. Also, in assay [6] (mPGES-1+/+ mice, 5 min anoxia at 80 min after IL-1β i.p.), the anoxic survival entry is “significantly reduced anoxic survival”. Also, the “Hyperpnea fR” value in assay [6] (mPGES-1+/+ mice, anoxia (100% N2) at 80 min after IL-1β) came out at 390 ± 11 breaths/min. Moreover, in assay [6] (setting [13]), the “Gasping Response Duration” value is listed as 82 ± 7, the “Gasping Response Gasp #” value is 30 ± 2, the “Gasping Response Gasp fR” value is recorded as 23 ± 1 and the “Hyperpnea Duration” value is listed as 61 ± 2.
